This note sets out measurements from the nanobody polyreactivity screen of Harvey et al. (2022).

This data set can be described thus: yeast display, Sf9 membrane polyspecificity reagent, FACS + sequencing; frameworks hold sequencing errors. The procedure, abridged:
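In a synthetic yeast display library (Saccharomyces cerevisiae BJ5465), nanobody expression was induced with galactose for 36–48 hours. FACS gates were set low and high (top ~1%) using anti-HA fluorescence for expression and streptavidin fluorescence for binding of the Sf9 membrane reagent. Each polyreactivity label is drawn from the gate of origin.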
For the sequence “QVQLVESGGGLVQAGGSLRLSCAASGYTFGTYDMGWYRQAPGKERELVAAISIGGSTNYADSVKGRFTISRDNAKNTVYLQMNSLKREDTAVYYCAAEVNVGTLLLSVIVEDGDYWGQGTQVTVSS”, the “polyreactivity (PSR sort gate)” value is “low polyreactivity”.
For the sequence “QVQLVESGGGLVQAGGSLRLSCAASGIIFRWYTMGWFRQAPGKERELVAAITGRGGSTYYADSVKGRFTISRDNAKNTFYLQMNSLIPEDTAVYYCAAEGVRIGTRYDYWGQGTLVTVSS”, the “polyreactivity (PSR sort gate)” value is on record as “high polyreactivity”.
Under “QVQLVESGGGLVQAGGSLRLSCAASGRTFDFYAMGWYRQAPGKERELVASNTFSTGSTTYADSVKGRFTISRDNAKITVYLQMNILKPEDTAVYYCAADGDCWWWSYVDRYDYWGQGTQVTVSS” stands “low polyreactivity”; under “QVQLVESGGGLVQAGGSLRLSCAASGSTFGRYTMGWYRQAPGKERQLVAAISSSGGGTYYADSVKGRLTISRDNAKNTVYLQMNSLKPEDTAVYYCAALGSRRYTRYGLTGFDYWGQGTQVTVSS”, “high polyreactivity”; under “QVQLVESGGGLFQAGGSLRLSCAASGSSFPFYAMGWYRQAPGKERELVASISSGGSTNYADSVKGRFTISRDNAKNTVYLQMNSLKPEDTAVYYCNADVPYRWDTWFQVVYPESYDYWGQGTQVTVSS”, “low polyreactivity”.
Under “QVQLVESGGGLVQAGCSLRLSCAASGFTFLNNAMGWSRQAPGKEREMVAAISQSGTSTYYADSVKGRFTISRDNAKNTVYLQMNSLKPEDTAVYYCAAEDTYPHDYSGGLEYDYWGQGTQVTVSS” stands “low polyreactivity”; under “QVQLVESGGGLVEPGGSLRLSFASSGRTYQFYVMGWSRQAPGKERELVASIRSGGSTNYADSVKGRFTISRDNAKNTVYLLMNSLKPEDTALYYCAARVASPYYRYVYWGKGTQVTVSS”, “low polyreactivity”; under “QVQLVETGGGLVQAGGSLRLSCAASGFIFRYYAMGWYRPAPGKERELVAVISSNGARTSYADSVKGRFTISRDNAKNTVYLQMNSLKPEDTADYYCNARAWSRFPPVGHDYWGQGTQVTVSS”, “high polyreactivity”.
In the case of “QVQLVESGGGLVQAGGSLRLSCAASGFIYRVYGMGWYRQAPVKERELLAAISGRGGSTYYADSVKGRFTISRDNANNTVYLQMHSLKPEDTAVYYCYTLDIRTYSKYDYWGQGTQVTVSS” it was “high polyreactivity”; in that of “QVQLVESGGGLVQAGGSLRLSCAASGRTFRIYATGWYRQAPGKERELVAAITRGGSTYYADSVKGRFTISRDNAKNTVYLQMNSLKPEDTAVYYCNAAPYYWGYDYWGQGTQVTVSS”, “high polyreactivity”.
For “QVQLVESGGGLVQAGGSLRLSCAASGRSFTGNAMGWYRQAPGKERELVAAISWRGARTYYADSVKGRFTISRDNAKNTVYFQMNSLKPVDTGVYYCAAAYRGYARHDYWGQGTQVTVSS”, the “polyreactivity (PSR sort gate)” value is “high polyreactivity”.
In the case of “QVQLVESGGGLVQAGGSLRLRGAASGSIFKGNAMGWYRQAPGKERELVAAITRSVARTYYADSVKVRFTISRDNAKNTVYLQMNSLKPEDTAVYDCAADWYQWGGRYYAPRYYYWGQGTQVTVSS” it was “high polyreactivity”.
On to “QVQLVESGGGLVQAGGSLRLSCAASGSIFYYNAKGWYRQAPGKERELVAGIRRSGDSTYYADSVKGRFTISRDNAKNTVYLQLNRLKPEDTAVYYCAADRVYEASQGYTYFDYDYWGQGTQVTVSS”, for which the “polyreactivity (PSR sort gate)” value is reported as “low polyreactivity”.
Under “QVQLVESGGGLVQAGGSLRLSCAATGSNLIYVMGGYRQAPGKERELVASITFSGGSTYYADSVKGRFTISRDNAKNTVYLQMNRLKPEDTAVYYCAAVPLWDYKFFYYMLYDYWGQGTQVTVSS” stands “low polyreactivity”; under “QVQLVESGGGLVQAGGSLRLSCAASGSIFRSYAMGWYRQAPGKERELVAGISYSGGSTYYADSVKGRFTISRDNAKNTVYLQMNSLKPEDTAVYYCATVSYYDRYDYDYWGQGTQVTVSS”, “low polyreactivity”.
Under “QVQLVESGGGLVQAGGSLRLSCAASGSIFYFNPMGWYRPAPGKERELVAAISWSGRTYYADSVKGRFTISRDNAKKTVYLQMNSLKPEDTAVYYCNAAYHYYGKYDYWGQGTQVTVSS” stands “high polyreactivity”; under “QVQLVESGGGLVQAGGSLRLSCAASGRTLFGNAMGWYRQAPGKERELVAAISRRGGSTSYADSVKGRFTISRDNAKNTVYLQMNSLKPEDTAVYYCAAAQGKYTGTHYPYDYWGQGTQVTVSS”, “high polyreactivity”.
In the case of “QVQLVESGGGLVQAGGSLRLSCAASGSTFPGNAMGWYRQAPGNERELVAAIRWSGGRTYYADSVKGRFTISRDNAKNTVYLQMNSLKPEDTAVYYCAARLRKHGYGYWGQGTQVTVSS” it was “low polyreactivity”; in that of “QVQLVESGGGLVQAGGSLRLSCAASGYTFRYYAMGWYRQAPGKERELVARITGRAGSTYYADSVKGRFTISRDNAKNTVYLQMNSLKPEDTAVYYCAASIREGFYWGQGTQVTVSS”, “high polyreactivity”; in that of “QVQLVESGGGLVQAVGRLRLSCAASGFTFPWYAMGWYRHAPGKERELVAAISTSGDSTYYADSVKGRFTISRDNAKNTVYLQMNSLKPADTAVYYCAARVVRGRYGYWGQGTQVTVSS”, “high polyreactivity”.
For “QVQLVESGGGLVQAGGSLRLSWAAYGNIFPHYAMGWYIQAPGKERELVAGITSSGGSTSYADSVKGRFTISRDNAKKTVYLQMNSLKPEDTAVYYCAAPRGQRVRDVYWGQGTQVTVSS”, the “polyreactivity (PSR sort gate)” value was “low polyreactivity”.
For the sequence “QVQLVESGGGLVQAGGSLRLSCAASGYTLRYYAMGWYRQAPGKERELVAAITYSGGSTYYADSVKGRFTISRDHAKNTVYLQMNSLKPEDTAVYYCAADYRAPLDYWGQGTQVTVSS”, the “polyreactivity (PSR sort gate)” value is “low polyreactivity”.
For “QVQLVESGGGLVQAGGSLRLSCAASGITFYRYAMGWYRQAPGKERELVAAITRSVGRTYYADSVKGRFTISRDNAKNTVYLQMNSLKPEDTAVYYCAADSPYYRGDYYWGLGTQVTVSS”, the “polyreactivity (PSR sort gate)” value was “high polyreactivity”.
Consider “QVQLVESGGGLVQAVGSLRLSCAASGSILVTYMGWYRPAPGKEREVVAAISYTGGSTYYADSVKGRFTISRDNAKNSVYLQMNSLKPEDTEVFYCASFYLASETYYYFYWPKDSDDYCGQGTQVTVSS”, for which the “polyreactivity (PSR sort gate)” value is listed as “low polyreactivity”.
In the case of “QVQLVESGGGLVQAGGSIRLSCAASGYTFVTNAMGWYRPAPGKERELVAAITTVGSTNYADSGKGRFTISRDNAKNTVYLQMNSLKPEDTAVYYCNANWYEWYGWGQGTQVTVSS”, the “polyreactivity (PSR sort gate)” value is reported as “low polyreactivity”.
Regarding “QVQLVESGGGLVQEGGSLRLSCAASGITFSYYAMGWYREAPGKEREWVATIRSSGGSTYYADSVKGRFTISRENAKNTVYLQMNSQKPEDTAVYYCAVRLWFDYNYWGQGTQVTVSS”, the “polyreactivity (PSR sort gate)” value is “low polyreactivity”.
With “QVQLVESGGGLVQAGGSLRFSCAASGRIFTFYAMGWYRQAPGKERELVAAITSGGSTYYADSVKGRFTISRDNAKNTVYLQMNSLKPEDTAVYYCNALHHTQHDYWGQGTQVTVSS”, the “polyreactivity (PSR sort gate)” value is given as “low polyreactivity”.
As to “QVQLVESGGGLVQAGGSLRISCAASGYTFFNYAMGWSRQAPGKERELVAAITWSGGSRYYADSVKGRFTISRVNAKNTVYLQMNSLKPEDTAVYYCAADAITPRDPYVTEKLDYWGQGTQVTVSS”, the “polyreactivity (PSR sort gate)” value is reported as “low polyreactivity”.
“QVQLVESGGGLVQAGGSLRLSCAASGSTIVLNDKRCYRQAPGKERELVAAITWSGGSTYYADSVKGRFTISRDNAKNTVYLQMNSLKPEDTAVYYCNVDYYGWPYWYEYDYWGQGTQVTVSS”: the “polyreactivity (PSR sort gate)” value is recorded as “high polyreactivity”.
In the case of “QVQLVESGGGLVQAGGSLRLSCAASGFTFYRYAMGWYRQAPGKERELVATISASGGSTYYADSVKGRFTISRDNAKNTVYLQMISLKPEDTAVYYCAVRTIWRFRYDYWGQGTQVTVSS” it was “high polyreactivity”; in that of “QVQLVESGGGLVQAGGSLRLSCAPSGRIFRKYAMGWYRQAPGKERELVAAINSRGGRTYYADSVKGRFTISRDNAKKTVYLQMNSLKPEDTAVYYCAASVGWGMDYWGQGTQVTVSS”, “high polyreactivity”; in that of “QVQLVESGGRLVQAGGSHRLSCAASGRTFNVYAMGWYRQAPGKERELVASISSSDTTNYADSVKGRFTISRDNAKNTVYLQMNSLKPEDTAVYYCAADYTPDLLSKVDYCGQGTQVTVSS”, “low polyreactivity”.
In the case of “QVQLVESGGGLVQAGGSLRLSCAASGSTFARNTMGWSRQAPGKEREIVAAIDWSGGNTYYADSVKGRFTISRDNAKNTVYLQMNSLKPEDTAVYNCYDYWGQGTQVTVSS” it was “low polyreactivity”; in that of “QVQLVESGGGLVQAGGSLRLSCAASGRTFGLNAMGWYIQAPGKERELVAAISGSGGRTYYADSVKGRFTISRDNAKNTVYLQMNSLKPEDTAVYYCARVPSGQLEYDYWGQGTQVTVSS”, “high polyreactivity”; in that of “QVQLVESGGGLVQAGGSLRLSCAAAGSTFHANAMGWYRPAPGKERELVAAISRSGGSTNYADSVKGRFTISRDIAKNTVYLQMNSLKPEDTAVYYCAVDYRYYQVYYWGQGTQVTVSS”, “high polyreactivity”.
Consider “QVQLVESGGGLVQAGGSLRLSCAASGRIFIYYAMGWYRQAPGKERELVAAISWGGGRTYYADSVKGRFTITRDNAKNTVYLQINSLKPEDTAVYYCAAGVYTGQHEYDYWGQGTQVTVSS”, for which the “polyreactivity (PSR sort gate)” value is “low polyreactivity”.
In the case of “QVHLVESGGGLVQAGGSLRLSCAASGSTFGRNAMGWYRQAPGKERELVAAISRGGGITYYADSVKGRFTISRDNAKNTVYLQMTSLKPEDTAVYYCNAYLSKYFRYDYWGQGTQVTVSS” it was “high polyreactivity”.
With “QVQLVESGGGLVQAGGSLRLSCAASGSTFSYNAMGCYRQAPGKESELVAAISRGDVSTYYADSVKGRFTISRDNAKNTVYLQMNSLKPEDTAVYYCAAYWYGSQYKWRYDYWGQGTQVTVSS”, the “polyreactivity (PSR sort gate)” value is “low polyreactivity”.
Under “QVQLVESGGGLVQAGGSLRLSCAASGRTFQYNAMGWYRQAPGKERELVAAISSSGGSTYYADSVKGRFTISRDNAKNTVYLQMNSLKPEDTAVYYCNAYSQSWNFYGDGDYWGQGTQVTVSS” stands “low polyreactivity”.
Under “QVQLEESGGGLVQAGVSLRLSCAASGRIFSSNAMGWYRQAPGKERELVAAITYSAGSTYYAVSVKGRFTISRDNAKNTVYLQMNSLKPEDTAVYYCAADSYYDRTIQFEFYARTYDYWGQGTQVTVSS” stands “low polyreactivity”; under “QVQLVESGGGLVQAGGSLRLSCAASGSTFSYYAMGWYRQAPGKEREFVAAISRSGGRTYYADSVKGRFKISRDNAKNTVYLQLNSLKPEDTAVYYCATVYYYDFSRTHPWPGDYWGQGTQVTVSS”, “high polyreactivity”.
